Assay in all cases: SPR, mAb captured, C2 mutant analyte;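 further: Anti-C2 mAbs captured on goat anti-human IgG Biacore CM5 chips, alanine or serine C2 surface mutants flowed over at 37 °C, double-referenced sensorgrams fitted to a 1:1 binding model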
Background: In SPR one partner is held on a chip, and binding of the other changes the refractive index at the surface.

For test [1], the target named is T1, human C2 S278A (human, UniProt P06681 21-752).
T1 sequence: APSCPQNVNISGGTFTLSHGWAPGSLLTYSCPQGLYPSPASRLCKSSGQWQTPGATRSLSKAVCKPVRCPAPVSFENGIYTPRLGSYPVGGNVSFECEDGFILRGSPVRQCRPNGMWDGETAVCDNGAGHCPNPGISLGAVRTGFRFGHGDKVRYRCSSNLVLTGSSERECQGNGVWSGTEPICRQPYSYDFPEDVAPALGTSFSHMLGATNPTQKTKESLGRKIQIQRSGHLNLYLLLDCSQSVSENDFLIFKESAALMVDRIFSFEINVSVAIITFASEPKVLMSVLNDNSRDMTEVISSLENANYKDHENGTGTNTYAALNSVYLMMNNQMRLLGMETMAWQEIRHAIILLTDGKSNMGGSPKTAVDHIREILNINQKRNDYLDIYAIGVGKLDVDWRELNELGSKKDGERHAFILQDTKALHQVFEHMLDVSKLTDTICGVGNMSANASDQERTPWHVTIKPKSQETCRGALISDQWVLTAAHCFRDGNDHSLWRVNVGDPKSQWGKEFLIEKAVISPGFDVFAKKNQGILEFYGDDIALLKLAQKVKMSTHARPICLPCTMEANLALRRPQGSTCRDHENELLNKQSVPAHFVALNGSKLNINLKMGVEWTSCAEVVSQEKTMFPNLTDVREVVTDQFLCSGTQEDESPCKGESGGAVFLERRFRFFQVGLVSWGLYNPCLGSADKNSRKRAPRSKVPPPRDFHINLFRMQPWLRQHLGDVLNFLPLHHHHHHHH

For test [2], the target named is T2, human C2 V455A (human, UniProt P06681 21-752).
T2 sequence: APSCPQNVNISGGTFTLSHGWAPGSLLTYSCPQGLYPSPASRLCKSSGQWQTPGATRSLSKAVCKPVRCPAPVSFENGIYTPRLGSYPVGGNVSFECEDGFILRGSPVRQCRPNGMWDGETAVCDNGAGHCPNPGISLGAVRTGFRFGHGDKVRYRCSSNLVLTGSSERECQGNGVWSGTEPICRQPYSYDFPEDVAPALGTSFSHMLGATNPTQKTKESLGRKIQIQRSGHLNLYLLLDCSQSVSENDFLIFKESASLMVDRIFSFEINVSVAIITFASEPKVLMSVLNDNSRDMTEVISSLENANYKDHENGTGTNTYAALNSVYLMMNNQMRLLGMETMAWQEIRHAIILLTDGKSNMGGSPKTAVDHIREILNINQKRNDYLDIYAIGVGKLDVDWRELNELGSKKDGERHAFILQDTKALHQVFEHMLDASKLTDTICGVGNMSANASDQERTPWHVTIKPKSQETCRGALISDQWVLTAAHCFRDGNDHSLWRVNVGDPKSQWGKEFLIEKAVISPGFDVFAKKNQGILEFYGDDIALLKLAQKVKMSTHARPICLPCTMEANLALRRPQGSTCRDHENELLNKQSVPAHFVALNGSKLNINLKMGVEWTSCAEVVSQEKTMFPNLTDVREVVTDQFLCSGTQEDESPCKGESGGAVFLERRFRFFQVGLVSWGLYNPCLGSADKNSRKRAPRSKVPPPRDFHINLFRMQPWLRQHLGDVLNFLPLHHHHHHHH

Test [3] has as its target T3, human C2 E433A (human, UniProt P06681 21-752).
T3 sequence: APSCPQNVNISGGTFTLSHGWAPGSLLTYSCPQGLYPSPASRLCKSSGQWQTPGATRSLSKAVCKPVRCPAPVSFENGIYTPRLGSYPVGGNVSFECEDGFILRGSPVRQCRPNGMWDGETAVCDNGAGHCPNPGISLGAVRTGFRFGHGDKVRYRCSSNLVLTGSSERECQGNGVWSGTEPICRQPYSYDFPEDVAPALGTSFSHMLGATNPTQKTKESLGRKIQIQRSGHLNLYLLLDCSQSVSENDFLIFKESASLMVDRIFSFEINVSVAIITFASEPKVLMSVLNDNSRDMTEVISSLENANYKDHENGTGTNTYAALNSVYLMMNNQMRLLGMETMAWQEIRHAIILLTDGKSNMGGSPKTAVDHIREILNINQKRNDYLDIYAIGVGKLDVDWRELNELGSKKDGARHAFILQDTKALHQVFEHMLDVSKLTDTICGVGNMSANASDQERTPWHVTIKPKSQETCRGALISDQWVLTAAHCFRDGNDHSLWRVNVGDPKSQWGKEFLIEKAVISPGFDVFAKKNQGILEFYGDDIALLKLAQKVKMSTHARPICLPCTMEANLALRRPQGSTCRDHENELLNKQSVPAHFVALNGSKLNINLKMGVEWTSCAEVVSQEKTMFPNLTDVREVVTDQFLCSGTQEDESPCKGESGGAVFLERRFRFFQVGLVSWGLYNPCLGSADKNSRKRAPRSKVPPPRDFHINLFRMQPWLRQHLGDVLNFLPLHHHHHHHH

Test [4] deals with T4, human C2 D441A (human, UniProt P06681 21-752).
T4 sequence: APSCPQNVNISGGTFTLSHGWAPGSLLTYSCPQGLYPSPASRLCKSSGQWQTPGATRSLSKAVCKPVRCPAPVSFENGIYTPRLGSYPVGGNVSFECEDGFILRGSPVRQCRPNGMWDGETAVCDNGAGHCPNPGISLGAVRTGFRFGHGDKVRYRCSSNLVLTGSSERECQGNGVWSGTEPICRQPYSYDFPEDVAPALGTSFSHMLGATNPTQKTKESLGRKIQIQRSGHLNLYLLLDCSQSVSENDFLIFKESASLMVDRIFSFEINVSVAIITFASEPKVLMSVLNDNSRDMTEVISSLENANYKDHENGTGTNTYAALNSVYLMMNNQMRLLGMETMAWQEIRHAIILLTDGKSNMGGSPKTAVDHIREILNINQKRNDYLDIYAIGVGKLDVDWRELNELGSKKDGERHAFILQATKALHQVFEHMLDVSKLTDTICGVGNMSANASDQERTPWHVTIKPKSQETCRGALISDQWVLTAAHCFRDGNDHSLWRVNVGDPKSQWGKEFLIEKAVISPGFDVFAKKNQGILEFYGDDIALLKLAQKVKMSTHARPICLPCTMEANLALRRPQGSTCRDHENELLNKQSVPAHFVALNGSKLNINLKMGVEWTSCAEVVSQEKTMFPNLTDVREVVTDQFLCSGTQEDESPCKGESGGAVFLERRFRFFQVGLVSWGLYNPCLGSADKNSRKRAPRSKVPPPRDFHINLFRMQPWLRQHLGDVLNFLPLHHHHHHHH

B1: RF16-214 (antibody, V domains shown)
VH: EVQLLESGGGLVQPGGSLRLSCAASGFTFSWYQMMWVRQAPGKGLEWVSRIYPSGGGTAYADSVKGRFTISRDNSKNTLYLQMNSLRAEDTAVYYCARDAGYGDNWGQGTLVTVSS
VL: QSALTQPPSVSVSPGQTASITCSGDKLGEKYASWYQQKAGQSPVMVIYQDRKRPSGIPERFSGSNSGNTATLTISGTQAMDEADYYCQAWDTRAVVFGGGTKLTVLG
One may read the Kd as the constant that tells how readily two partners part at equilibrium. The low end stands for tighter binding, the high end for weaker binding. On to B1, for which the Kd in test [1] was found to be 34.5 nM; in test [2] it was 9.8 nM; in test [3], 16.4 nM; in test [4] it was 51.5 nM.

The values are drawn from US20220332804A1 (CSL INNOVATION, published 2022).
